Assay results published in US20220275049A1 (AGENUS, published 2022).
Square brackets hold non-standard residues; d marks the D form. Ends that are not written are not given here. pY = N[C@@H](Cc1ccc(OP(=O)(O)O)cc1)C(=O)O; pT = C[C@@H](OP(=O)(O)O)[C@H](N)C(=O)O; pS = N[C@@H](COP(=O)(O)O)C(=O)O

What was measured:
Experiment in all cases: AlphaScreen, peptide titrated on biotinylated HLA + b2m
[1] = target: T1, biotinylated HLA-A*02:01 with β2m (human, biotinylated)
T1 construct: HLA heavy chain mixed with excess β2m; the peptide is titrated onto it
Protocol: (§1) An AlphaScreen® assay was used to evaluate the binding of peptides to HLA molecules. Donor beads conjugated with streptavidin, and acceptor beads conjugated with the anti-human HLA class I antibody W6/32, were used to assess peptide binding. Biotinylated HLAs (A*02:01, B*07:02, C*07:01, or C*07:02) were mixed with a fixed excess of β2m and the mixtures added to each well of a 384-well microplate. Serial dilutions of the synthesized phosphopeptides were added to the wells, and the resultant HLA/β2/peptide mixtures were incubated overnight at 18° C. W6/32 conjugated acceptor beads were subsequently added to the wells, and the mixture was incubated for 1 hour at 21° C. Streptavidin conjugated donor beads were then added to the wells, and the mixture was incubated for a further 1 hour at 21° C.
(§2) The microplate was read using the PerkinElmer® plate reader, and data were plotted using the Michaelis-Menten equation to determine the Kd for each phosphopeptide.

[2] = target: biotinylated HLA-C*07:01 with β2m (human, biotinylated)
Protocol: as §1, §2

[3] = target: T2, biotinylated HLA-B*07:02 with β2m (human, biotinylated)
T2 construct: also called B*07:02 (as the text prints it)
Protocol: as §1, §2

[4] = target: biotinylated HLA-C*07:02 with β2m (human, biotinylated)
Protocol: as §1, §2

Binder	Kd [1] [nM]	binding result [3]	Kd [3] [nM]	also measured
SIS[pS]MEVNV [SISsMEVNV]	306	no binding	–	binding result [2]: no binding; binding result [4]: no binding
SISS[pT]PPAV [SISStPPAV]	169	no binding	–	binding result [2]: no binding; binding result [4]: no binding
SLF[pS]GDEENA [SLFsGDEENA]	278	no binding	–	binding result [2]: no binding; binding result [4]: no binding
SLF[pS]PQNTL [SLFsPQNTL]	116	–	–	–
SLF[pS]SEESNL [SLFsSEESNL]	466	no binding	–	binding result [2]: no binding; binding result [4]: no binding
SLF[pS]SEESNLGA [SLFsSEESNLGA]	149	no binding	–	binding result [2]: no binding; binding result [4]: no binding
SLHDIQL[pS]L [SLHDIQLsL]	31.9	–	642	Kd [2]: 962 nM; Kd [4]: 413 nM
SLQ[pS]LETSV [SLQsLETSV]	121	no binding	–	binding result [2]: no binding; binding result [4]: no binding
SMS[pS]LSREV [SMSsLSREV]	927	no binding	–	binding result [2]: no binding; binding result [4]: no binding
TVF[pS]PTLPAA [TVFsPTLPAA]	46.9	no binding	–	binding result [2]: no binding; binding result [4]: no binding
VLFS[pS]PPQM [VLFSsPPQM]	227	no binding	–	binding result [4]: no binding
[pY]LQSRYYRA [yLQSRYYRA]	255	–	–	binding result [2]: no binding
RPR[pS]PTGPSNSFL [RPRsPTGPSNSFL]	–	–	360	binding result [1]: no binding
RPRIP[pS]PIGF [RPRIPsPIGF]	–	–	84.4	binding result [1]: no binding
LPRPA[pS]PAL [LPRPAsPAL]	–	–	223	binding result [1]: no binding
RPAFF[pS]PSL [RPAFFsPSL]	–	–	398	binding result [1]: no binding
RPF[pS]PREAL [RPFsPREAL]	–	–	163	–
SPFKRQL[pS]L [SPFKRQLsL]	–	–	64.7	–
SPA[pS]PKISL [SPAsPKISL]	–	–	275	–
RPDVAKRL[pS]L [RPDVAKRLsL]	–	–	216	–
RPRPV[pS]PSSLL [RPRPVsPSSLL]	–	–	186	–
RLL[pS]FQRYL [RLLsFQRYL]	49.7	no binding	–	–

Binder	Kd [1] [nM]	binding result [3]	Kd [3] [nM]	also measured
RLS[pS]PLHFV [RLSsPLHFV]	90.6	–	–	–
RPY[pS]PPFFSL [RPYsPPFFSL]	–	–	157	–
LPA[pS]PRARL [LPAsPRARL]	–	–	83.5	–
RPR[pS]ISVEEF [RPRsISVEEF]	–	–	86.1	–
RRG[pS]FEVTL [RRGsFEVTL]	–	no binding	–	Kd [2]: 16.6 nM; Kd [4]: 15.9 nM
SIM[pS]PEIQL [SIMsPEIQL]	84	no binding	–	–
RRL[pS]FLVSY [RRLsFLVSY]	–	–	–	Kd [2]: 1570 nM; Kd [4]: 113 nM
RIYQ[pY]IQSRF [RIYQyIQSRF]	–	–	–	Kd [2]: 477 nM; Kd [4]: 377 nM
RRP[pS]LLSEF [RRPsLLSEF]	–	–	–	Kd [2]: 804 nM; Kd [4]: 35.7 nM
RRS[pS]FLQVF [RRSsFLQVF]	–	no binding	–	Kd [4]: 19 nM
RRI[pS]DPQVF [RRIsDPQVF]	–	no binding	–	Kd [2]: 11.4 nM; Kd [4]: 19.9 nM
RRF[pS]GTAVY [RRFsGTAVY]	–	no binding	–	Kd [2]: 2180 nM; Kd [4]: 16.7 nM
FRR[pS]PTKSSLDY [FRRsPTKSSLDY]	–	–	–	Kd [4]: 98.6 nM
AVRPTRL[pS]L [AVRPTRLsL]	–	–	117	binding result [1]: no binding
RLL[pS]AAENFL-OH (N-terminus assumed; SMILES CC(C)C[C@H](NC(=O)[C@H](Cc1ccccc1)NC(=O)[C@H](CC(N)=O)NC(=O)[C@H](CCC(=O)O)NC(=O)[C@H](C)NC(=O)[C@H](C)NC(=O)[C@H](COP(=O)(O)O)NC(=O)[C@H](CC(C)C)NC(=O)[C@H](CC(C)C)NC(=O)[C@@H](N)CCCNC(=N)N)C(=O)O) [RLLsAAENFL]	114	–	–	–
SVKPRRT[pS]L [SVKPRRTsL]	–	–	–	binding result [1]: no binding; binding result [2]: no binding; binding result [4]: no binding
RIYQ[pY]IQSR [RIYQyIQSR]	–	–	–	binding result [1]: no binding
RPK[pT]PPVVI [RPKtPPVVI]	–	–	–	binding result [1]: no binding
KIK[pS]FEVVF [KIKsFEVVF]	–	no binding	–	–
YRY[pS]PQSFL [YRYsPQSFL]	–	no binding	–	binding result [1]: no binding
KRF[pS]GTVRL [KRFsGTVRL]	–	no binding	–	–
